According to patent US20090142280A1:

Tests used:
[1] = test system: T1, oligopeptide-10 (HB64), FAKALKALLKALKAL-NH2
T1 sequence: FAKALKALLKALKAL

[2] = test system: LL-37 (LLGDFFRKSKEKIGKEFKRIVQRIKDFLRNLVPRTES)
[3] = biological target: oligopeptide-10 (HB64), …-NH2; experiment: cell-based or functional assay
LL-37 (…) (human) = experiment: cell-based or functional assay
[4] = biological target: hexapeptide-21 (HB168), FALLKL-NH2; experiment: cell-based or functional assay
[5] = biological target: HB1345, decanoyl-KFKWPW-NH2; experiment: cell-based or functional assay

plasmin (Sigma-Aldrich)
TIC and XIC traces (LC/MS) after a 4-hour exposure [1]: while most of the HB64 peptide was degraded, some parent peptide could still be detected
TIC trace and mass spectrum (LC/MS) after 1-hour incubation [2]: the molecular weight of parent peptide LL-37 was undetectable

elastase (Sigma-Aldrich) (enzyme)
Survival of peptide (1 mg/mL) with elastase 25 µg/mL, no inhibitor, LC/MS, Expt. 22 [3]: < 1 h

trypsin (Sigma-Aldrich)
TIC traces (LC/MS) of peptide degradation at time zero, 1 hour and 23 hours [1]: the parent peak (represents the full-length, non-degraded peptide) in the TIC traces was reduced over time and peaks for various breakdown products increased in intensity over time

chymotrypsin (Sigma-Aldrich) (enzyme)
Survival of peptide (1 mg/mL) with chymotrypsin 25 µg/mL, no inhibitor, LC/MS, Expt. 34 [3]: < 1 h
Survival of peptide (1 mg/mL) with chymotrypsin 22 µg/mL, no inhibitor, LC/MS, Expt. 39 (LL-37 (…) (human)): < 1 h

urokinase (enzyme)
Survival of peptide (1 mg/mL) with urokinase 22 µg/mL, no inhibitor, LC/MS, Expt. 51 (LL-37 (…) (human)): < 24 h
Survival of peptide (1 mg/mL) with urokinase 22 µg/mL, no inhibitor, LC/MS, Expt. 53 (LL-37 (…) (human)): < 24 h

trypsin (Sigma-Aldrich) (enzyme)
Survival of peptide (1 mg/mL) with trypsin 25 µg/mL, no inhibitor, LC/MS, Expt. 4 [3]: < 1 h
Survival of peptide (1 mg/mL) with trypsin 25 µg/mL, no inhibitor, LC/MS, Expt. 10 [3]: < 1 h
Survival of peptide (1 mg/mL) with trypsin 25 µg/mL, no inhibitor, LC/MS, Expt. 12 [3]: < 1 h
Survival of peptide (1 mg/mL) with trypsin 25 µg/mL, no inhibitor, LC/MS, Expt. 6 [4]: < 1 h
Survival of peptide (1 mg/mL) with trypsin 25 µg/mL, no inhibitor, LC/MS, Expt. 8 [5]: < 1 h

plasmin (Sigma-Aldrich) (enzyme)
Survival of peptide (1 mg/mL) with plasmin 20 µg/mL, no inhibitor, LC/MS, Expt. 45 [3]: < 4 h
Survival of peptide (1 mg/mL) with plasmin 25 µg/mL, no inhibitor, LC/MS, Expt. 25 [3]: < 4 h
Survival of peptide (1 mg/mL) with plasmin 25 µg/mL, no inhibitor, LC/MS, Expt. 30 [3]: < 6 h
Survival of peptide (1 mg/mL) with plasmin 46 µg/mL, no inhibitor, LC/MS, Expt. 32 [3]: < 4 h
Survival of peptide (1 mg/mL) with plasmin 22 µg/mL, no inhibitor, LC/MS, Expt. 37 (LL-37 (…) (human)): < 1 h
Survival of peptide (1 mg/mL) with plasmin 22 µg/mL, no inhibitor, LC/MS, Expt. 38 (LL-37 (…) (human)): < 45 min

kallikrein (Sigma-Aldrich) (enzyme)
Survival of peptide (1 mg/mL) with kallikrein 25 µg/mL, no inhibitor, LC/MS, Expt. 27 [3]: < 24 h
Survival of peptide (1 mg/mL) with kallikrein 22 µg/mL, no inhibitor, LC/MS, Expt. 41 (LL-37 (…) (human)): < 4 h
Survival of peptide (1 mg/mL) with kallikrein 22 µg/mL, no inhibitor, LC/MS, Expt. 47 (LL-37 (…) (human)): < 4 h
Survival of peptide (1 mg/mL) with kallikrein 22 µg/mL, no inhibitor, LC/MS, Expt. 49 (LL-37 (…) (human)): < 1 h
Survival of peptide (1 mg/mL) with kallikrein 22 µg/mL, no inhibitor, LC/MS, Expt. 55 (LL-37 (…) (human)): < 1 h
